Data published in patent US20140057332A1, “GLUCO-OLIGOSACCHARIDE OXIDASES FROM ACREMONIUM STRICTUM AND USES THEREOF” (The Governing Council of the University of Toronto, priority 2011, published 2014).

Tests used:
[1] = Effect of deglycosylation with PNGaseF on enzyme activity; assay type: biochemical
Protocol: Approximately 2 μg of purified enzyme was treated with PNGaseF (New England Biolabs) using denaturing and native conditions. Samples that were deglycosylated using denaturing conditions were analysed by SDS PAGE, while samples deglycosylated using native conditions were used to evaluate the impact of glycosylation on enzyme activity. The activity of enzymes was measured on 10 mM maltose at 37° C. for 15 min. (Table 7). N-glycosylation was predicted by NetNGlyc (http://www.cbs.dtu.dk/services/NetNGlyc/) while O-glycosylation was predicted by OGPET (http://ogpet.utep.edu/OGPET/).

[2] = Temperature stability (residual activity on cellobiose); assay type: physicochemical; details: for Residual activity after 1 h: assay 1 mM cellobiose, 37° C., pH 8
Protocol: (§1) Temperature stability was measured by incubating 0.2 μg of enzyme for 1 h at nine different temperatures ranging from 25 to 60° C. (Table 9). While GOOX-VN and the variant GOOX-V were stable at 45° C., both lost more than 70% activity after incubation for 1 h at 50° C. […] The pH stability of GOOX-VN was determined by incubating 0.2 μg of the enzyme for 1 h at pH values from pH 3 to 12. After 1 h of incubation, GOOX-VN retained more than 80% activity at pH 5 to pH 10, 40% activity at pH 4, and less than 10% activity at pH values below 3 or above 11. Finally, the optimum pH for GOOX-VN activity was determined by incubating 0.1 μg of enzyme at 37° C. for up to 5 min with 25 mM cellobiose in 25 mM Britton-Robinson universal buffer solutions at pH 5 to 12. At regular time points, the chromogenic assay mix containing 400 mM potassium phosphate buffer pH 6, 0.1 mM 4-aminoantipyrine, 1 mM phenol, 3 U/ml horseradish peroxidase and 40 mM cellobiose was added to the reaction and was incubated for approximately 5 min at 37° C., until the chromogenic compound was detected.

[3] = pH stability of enzyme; assay type: physicochemical
Protocol: as §1

[4] = Optimum pH for activity; assay type: biochemical; details: 25 mM cellobiose, 37° C., Britton-Robinson buffer pH 5 to 12
Protocol: as §1

[5] = Chromogenic H2O2 oxidase assay on xylotetraose; details: 1 mM xylotetraose; 37° C., 15 min
Protocol: (§2) A chromogenic assay was used to measure hydrogen peroxide production (15). Reactions contained 0.1 mM 4aminoantipyrine (4AA), 1 mM phenol, 0.5 U horseradish peroxidase, 40 mM Tris-HCl (pH 8.0), and different substrates were initiated by adding 0.2 μg of enzymes to the 250 μL reaction mixture. The production of H2O2 was coupled to the oxidation of 4aminoantipyrine by horseradish peroxidase and detected at 500 nm. Reactions were incubated at 37° C. for 15 min to measure the specific activity of GOOX on 10 mM of monosaccharide or 1 mM of oligosaccharide.
(§3) An additional eight mutations, identified as Y72F, Y72A, E247A, E314A, W351A, N388S, Q353N, Q384A, were created in GOOX-VN to assess the influence of these residues on the substrate selectivity of GOOX-VN. […] The specific activity of each mutant was then measured at 37° C. for 15 min using 10 mM mono-sugars and 1 mM oligosaccharides as performed for Y300A, Y300N, and W351F (Table 11).

[6] = Chromogenic H2O2 oxidase assay on xylopentaose; details: 1 mM xylopentaose; 37° C., 15 min
Protocol: as §2, §3

[7] = substrate: OC1OC[C@@H](O[C@@H]2OC[C@@H](O[C@@H]3OC[C@@H](O)[C@H](O)[C@H]3O)[C@H](O)[C@H]2O)[C@H](O)[C@H]1O; assay: purified protein, by the assay type; details: other: 37° C., pH 8.0
Protocol: as §2
(§4) At least 12 substrate concentrations were included to obtain kinetic parameters for each substrate. Initial rates were obtained by measuring reaction products every 30 s for 15 min at 37° C. and pH 8.0, and kinetic parameters were calculated using the Michaelis-Menten equation (GraphPad Prism5 Software).

[8] = substrate: OC[C@H]1OC(O)[C@H](O)[C@@H](O)[C@@H]1O; assay: purified protein, by the assay type; details: other: 37° C., pH 8.0
Protocol: as §2, §4

[9] = substrate: OC[C@H]1O[C@@H](O[C@H]2[C@H](O)[C@@H](O)C(O)O[C@@H]2CO)[C@H](O)[C@@H](O)[C@@H]1O; assay: purified protein, by the assay type; details: other: 37° C., pH 8.0
Protocol: as §2, §4

[10] = substrate: OC[C@H]1O[C@@H](O[C@H]2[C@H](O)[C@@H](O)[C@H](O[C@H]3[C@H](O)[C@@H](O)C(O)O[C@@H]3CO)O[C@@H]2CO)[C@H](O)[C@@H](O)[C@@H]1O; assay: purified protein, by the assay type; details: other: 37° C., pH 8.0
Protocol: as §2, §4

[11] = substrate: OC[C@H]1O[C@H](O[C@H]2[C@H](O)[C@@H](O)C(O)O[C@@H]2CO)[C@H](O)[C@@H](O)[C@@H]1O; assay: purified protein, by the assay type; details: other: 37° C., pH 8.0
Protocol: as §2, §4

[12] = Chromogenic H2O2 oxidase assay / kinetic analysis on glucose
Protocol: as §2, §4

[13] = Chromogenic H2O2 oxidase assay / kinetic analysis on maltose
Protocol: as §2, §4

[14] = Chromogenic H2O2 oxidase assay / kinetic analysis on galactose
Protocol: as §2, §4

[15] = Chromogenic H2O2 oxidase assay / kinetic analysis on cellobiose
Protocol: as §2, §4

[16] = Chromogenic H2O2 oxidase assay / kinetic analysis on xylotriose
Protocol: as §2, §4

[17] = Chromogenic H2O2 oxidase assay / kinetic analysis on cellotriose
Protocol: as §2, §4

[18] = 10 mM galactose, 37° C., 15 min
[19] = 1 mM cellobiose, 37° C., 15 min
[20] = 1 mM xylotriose, 37° C., 15 min
[21] = 1 mM cellotriose, 37° C., 15 min

Activity, Deglycosylated ([1]; deglycosylated with PNGaseF (native conditions), 10 mM maltose, 15 min at 37° C., duplicate): 3.43 nmol/min
Activity, Glycosylated ([1]; glycosylated enzyme, 10 mM maltose, 15 min at 37° C., duplicate): 3.51 nmol/min
oxidation of galactose ([14]; after 3 min using 10 mM sugar): detected
B1: Acremonium strictum gluco-oligosaccharide oxidase GOOX-VN (type strain CBS 346.70, V38 and N388), SEQ ID NO. 2 (Sarocladium strictum; A38V/S388N) (protein)
chain: NSINACLAAADVEFHEEDSEGWEMDGTAFNLRVDYDPVAIAIPRSTEDIAAAVQCGLDAGVQISAKGGGHSYGSYGFGGEDGHLMLELDRMYRVSVDDDNVATIQGGARLGYTALELLDQGNRALTHGTCPAVGIGGHVLGGGYGFATHTHGLTLDWLVGATVVLADASIVHVSKTENADLFWALRGGGGGFAIVSEFEFNTFEAPEIITTYQVTTTWNRKQHVAGLKALQDWAENTMPRELSMRLEINANALNWEGNYFGNAKDLKKVLQPIMKKAGGKSTISKLVETDWYGQINTYLYGADLNITYNYDVHEYFYANSLTAPRLSDEAISAFVDYKFDNSSVRPGRGWWIQWDFHGGKNSALASHSNDETAYAHRDQLWLWQFYDNIYDYENNTSPYPESGFEFMQGFVATIEDTLPEDRKGKYFNYADTTLDKEEAQKLYWRGNLEKLQAIKAKYDPEDVFGNVVSVEPIA
loss in enzyme activity on deglycosylation ([1]; deglycosylation under native conditions): did not cause a detectable loss in enzyme activity
stability at 45° C. ([2]; 1 h at 45° C.): stable
Residual activity after 1 h ([2]; incubation at 25° C.): 100%
Residual activity after 1 h ([2]; incubation at 30° C.): 95%
Residual activity after 1 h ([2]; incubation at 35° C.): 100%
Residual activity after 1 h ([2]; incubation at 40° C.): 100%
Residual activity after 1 h ([2]; incubation at 45° C.): 64%
Residual activity after 1 h ([2]; incubation at 50° C.): 7%
Residual activity after 1 h ([2]; incubation at 55° C.): <5%
Residual activity after 1 h ([2]; incubation at 60° C.): <5%
activity retained after 1 h of incubation ([3]; pH 4): 40%
activity retained after 1 h of incubation ([3]; pH 5 to pH 10): more than 80%
activity retained after 1 h of incubation ([3]; pH values below 3 or above 11): less than 10%
pH optimum [4]: 10 pH
Specific Activity of Enzyme Variants [5]: 10.2 µmol/min/mg
Specific Activity of Enzyme Variants [6]: 10.8 µmol/min/mg
Km [7]: 100 ± 10 µM
kcat [7]: 8.31 ± 0.123 s⁻¹
kcat/Km [7]: 84300 ± 8530 M⁻¹ s⁻¹
Km [8]: 17360 ± 700 µM
Km [9]: 70 ± 10 µM
kcat [9]: 6.25 ± 0.178 s⁻¹
kcat/Km [9]: 95500 ± 13900 M⁻¹ s⁻¹
Km [10]: 90 ± 10 µM
kcat [10]: 6.02 ± 0.192 s⁻¹
kcat/Km [10]: 70600 ± 8150 M⁻¹ s⁻¹
Km [11]: 2810 ± 160 µM
Specific Activity of Enzyme Variants ([12]; 10 mM glucose, 37° C., 15 min): 2.6 µmol/min/mg
Specific activity Defined substrate concentration ([12]; 10 mM glucose, 37° C., 15 min): 2.62 µmol/mg/min
Specific activity From Vmax ([12]; substrate glucose): 7.41 µmol/mg/min
Specific Activity of Enzyme Variants ([13]; 1 mM maltose, 37° C., 15 min): 1.5 µmol/min/mg
Specific activity Defined substrate concentration ([13]; 1 mM maltose, 37° C., 15 min): 1.53 µmol/mg/min
Specific activity From Vmax ([13]; substrate maltose): 5.94 µmol/mg/min
Specific Activity of Enzyme Variants [14, 18]: 0.5 µmol/min/mg
Specific activity Defined substrate concentration [14, 18]: 0.52 µmol/mg/min
Specific activity From Vmax ([14]; substrate galactose): 7.08 µmol/mg/min
Specific Activity of Enzyme Variants [15, 19]: 5.4 µmol/min/mg
Specific activity Defined substrate concentration [15, 19]: 5.38 µmol/mg/min
Specific activity From Vmax ([15]; substrate cellobiose): 6.18 µmol/mg/min
Specific Activity of Enzyme Variants [16, 20]: 7.5 µmol/min/mg
Specific activity Defined substrate concentration [16, 20]: 7.48 µmol/mg/min
Specific activity From Vmax ([16]; substrate xylotriose): 8.23 µmol/mg/min
Specific Activity of Enzyme Variants [17, 21]: 5.1 µmol/min/mg
Specific activity Defined substrate concentration [17, 21]: 5.12 µmol/mg/min
Specific activity From Vmax ([17]; substrate cellotriose): 5.96 µmol/mg/min
